Test results as given in the nanobody polyreactivity screen of Harvey et al. (2022).

Experiment: yeast display, Sf9 membrane polyspecificity reagent, FACS + sequencing; frameworks hold sequencing errors
Method in brief: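 Polyreactivity labels are assigned by the sorting gate from which each nanobody was recovered. The gates were low and high (top ~1%), set on anti-HA fluorescence for expression and streptavidin fluorescence for reagent binding. Before sorting, galactose-induced (36–48 hours) yeast display cells were stained for 1 hour at 4 °C with 10% biotinylated, detergent-solubilized Sf9 membrane reagent.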

QVQLVESGGGLVQAGGSLRLSCAASGSILEIYAMGWYRQAPGKESEFVASISWDVSSTYYADSVKGRFTISRDNAKNTVYLQMNSLKPEDTAVYYCATSLVWGLYDWYYDLSAAFDYWGQGTQVTVSS
polyreactivity (PSR sort gate): low polyreactivity

QVQLVESGGGLVQAGGSLRLICAASGNTIIRYAIGWFRQAPGKERELVAAISYSGGRTYYADSVKGRFTISRDNAKNTVYLQMNSVKPEDTAVYYCNAASRYGGDYWGQGTQVTVSS
polyreactivity (PSR sort gate): low polyreactivity

QVQLVESGGGLVQAGGSLRLSCAASGRTFGGYTMGWYRQAPGKERELVAAITGSGSNTYYADSVKGRFTISRDNAKNTVYLQMNSLKPEDTAVYYCAAPYSYRTWYPYGYWGQGTQVTVSS
polyreactivity (PSR sort gate): high polyreactivity

QVQLVESGGGLVQAGGSLRLSCAASGRTFSVYDMGWYRQAPGKERELVARIRSGGSTYYADSVKGRFTISRDNAKNTVYLQMNSLKPEDTAVYYCAADGFASRWYAYYYWGQGTQVTVSS
polyreactivity (PSR sort gate): high polyreactivity

QDQHVESGGGLVQAGGSLRLSCAASGLTYRYNAMGWYRPAPGKERELVAAITSSGGSTYYADSVKGRFTISRDNAKNTVYLQMNSLKPEDTAVYYCAAATNTQESVPMYYWGQGTQVTVSS
polyreactivity (PSR sort gate): low polyreactivity

QVQLVESGGGLVQAGGSLRLSCAASGSIFVYNAMGWYRQAPGKERELVASITWSGGRTYYADSVKGRFTISRDNAKNTVYLQMNSLKPEDTAVYYCNVRQGGPTVTWEYDYWGQGTQVTVSS
polyreactivity (PSR sort gate): high polyreactivity

QVQLVESGGGLVQAGGSLRLSCAASGSTFWLYAMGWYRQAPGKEREFVATISSSTTYYADSVKGRFTISRDNAKNTVYFQMNSLKPQDTAVYYCNAADYYSDVWSSVDYEGDYWGQGTQVTVSS
polyreactivity (PSR sort gate): low polyreactivity

QVQLVESGGGLVQAGGSLRLSCAASGGTIGWYAMGWYRQAPGKERELVAAITSSGGTTFYADSVKGRFTISRDNAKNTVYLQMNSLKPEDTAVYYCAKRGKRPTRYKLGKYDYWGQGTQVTVSS
polyreactivity (PSR sort gate): high polyreactivity

QVQLVESGGGLVQAGGSLRLSCAASVSIIPHNTMGWYRQAPGKEMELVAAISRSGGSTYYADSVKGRFTISRDNGKKTVYLQMNSLKPEDTAVYYCSSDSYDVGHQVVSEERLYDYWGQGTQVTVSS
polyreactivity (PSR sort gate): low polyreactivity

QVQLVESGGGLVQAGGSLRLSCAASGFSFDSYALGWYRKAPGKERELVAAISRSGGSTYYADSVKGRFTISRDNAKNTVYLQMNSLKPEDTAVYYCARDRDSWGGHDSWGQGTQVTVSS
polyreactivity (PSR sort gate): high polyreactivity

QLQLVESGGGLGQSGGSIRLSCAASGFIFPVYTMGRSRQAPGKERELVAAITQIGGSTHYADSVKGRFTISRDNAKNTVYLQMNSLKPEDTAVYYCNAVPSYGTEYDYWGQGTQVTVSS
polyreactivity (PSR sort gate): low polyreactivity

QVQLVESGGGLVQAGGSLRLSCAASGRIFVSYVMGWYRPAPGKEREFVAAIRRSGSSTYYADSVKGRFTISRDNAKNTVYLQINRLKPEDTAVYYCAAYQRSRTLRRYDYWGQGTQVTVSS
polyreactivity (PSR sort gate): high polyreactivity

QVQLVESGGGLVQAGGSLRLSCAASGFTFATYAMGWYRQAPGKERELVAAITYRGGRTYYADSVKGRFTISRDNAKNTVYLQMNSLKPEDTAVYYCNTVYPRRLIFGYWGQGTQVTVSS
polyreactivity (PSR sort gate): high polyreactivity

QVQLVETGGGLVQAGGSLRLSCAASARIFLGYTMGWYRKAPGKEMELVASITWSGGSTYYADSVKGRFTISRDNAKNTVYLQMNRLKPDVTAVYYCNAVYWVARGRYDYWGQGTQVTVSS
polyreactivity (PSR sort gate): high polyreactivity

QVQLVESGVGLVQAGGSLRLSCAASGSTYRYAMGWYRQAPGKERELVAAISRSTGSTYYADSVKGRLTISRDNANNTVNLQMNRLKPEDTAVYYCARDVYYRGYKYGYWGQGTQVTVSS
polyreactivity (PSR sort gate): high polyreactivity

QVQLVESGGGLVQAGGSLRLSCAASGFIFYGYDMGWYRQAPGKETELVASISVRGGDTYYADSVKGRFTISRDNAKNTVYLQMNSLKPEDTAVYDCNAEGYPGRFSYGVVYGDVGYDYWGQGTQVTVSS
polyreactivity (PSR sort gate): low polyreactivity

QVQLVESRGALVQAGGSLRLSCAASGLILWVNAMGWNRQAPGKERELVAAISWSSGSTYYADSVKGRFTISRDNAKNTVYLQMNSLKPEASAVYYCAASVRRTGSICHYYYSGQGTQVTVSS
polyreactivity (PSR sort gate): high polyreactivity

QVQLVESGGGLVQAGGSLRLSCAASGSTFTGYAMGWYRQAPGKERELVAAISRSVGRTYYADSVKGRFTISRDNAKNTVYLQMNSLKPEETAVYYCAADVFLTGSRNYYWGQGTQVTVSS
polyreactivity (PSR sort gate): high polyreactivity

QVQLVESGGGLVQAGGSLRLSCAASGRIWVNAMAWYRQAPRKEMEFVAAISTSSASTYYADSVKGRFTISRDNAKNTVYLQMNSLKPVDTAVYYCAARYLGKKFYYWGQGTQVTVSS
polyreactivity (PSR sort gate): high polyreactivity

QVQLVESGGGLVQAGGSLRLSCAASGRIFIYYAMGWYRQAPGKERELVAAISWSGGRTYYADSVKGRFTISRDNAKNTVYLQMNSLKPEDTAVDYCAGYSFANHGFDYWGQGTQVIVSS
polyreactivity (PSR sort gate): high polyreactivity

QVQLVESGGGLVQAGRSLRLSCAASGRIFGPYTMGWYRQAPGKEREFVAAITRRGGSTYYADSVKGRFTISRDNAKNTGYLQRHSLKPEDTAVYYCAAVGQKRSLGYSWGQGTQVTVSS
polyreactivity (PSR sort gate): low polyreactivity

QVQLVESGGGLVQAGGSLRLSCAASGRIFARYAMGWYRQAPGKERELVAAITSRGGSTYYADSVKGRFTISRDNAKNTVYLQMNSLKPEDTAVYYCNADYYRRPYYYWGQGTQVTVSS
polyreactivity (PSR sort gate): high polyreactivity

QVKLVESGGGLVKAGGILRLSCAASGRTFRRNAMGWYRQPPGKESELVAAISSSGGSTYYADSVKGRFTISRDNAKNTVYLQMNSLKPEDTAVYYCNAYRYYVYDTYDGHGYWGQGTQVTVSS
polyreactivity (PSR sort gate): high polyreactivity

QVQLVETGGGLVQAGGSLRLSCAASGITFWYYAMGCDRQAPGKERELVAVISRGGSTYYADSVKGRFTISRDNAKNTVYLQMNSLKPEDTAVYYCAARPRWYTYNRQEYDYWGQGTQVTLSS
polyreactivity (PSR sort gate): high polyreactivity

QVQLVESGGGLVQPGGSLRLSCAASGLTFPWYAMGWYRQAPGQERELVAAITNSDGNTFADSVKGRFTISRDNAKNSVYLQMNSLKAEDTAVYSCATDTRSLAYYYWGQGTQVTVSS
polyreactivity (PSR sort gate): low polyreactivity

QVQLQESGGGLVQACGSQRLSCAASGSISEGQDMGWYRRAPGKEREFVAGIAPGATTYYADSVKGRFTISRDNAKNTVYLQMNSLKPEDTAVYYCAARSVTETDHDYWGQVTQVTVSS
polyreactivity (PSR sort gate): low polyreactivity

QVQLVESGGGLVQAGGSLRLSCAASGRILYLNAMGWYRQAPGKERELVAAITRRAGSTRYADSVKGRFTISRDKAKNTVYLQMNSLKPEDTAVYYCAVAYYRNRMDYWGQGTQVTVSS
polyreactivity (PSR sort gate): high polyreactivity

QLQLQESVGGLVQAGGSLRLSCAAIGNIFPTDRMGWYSQSPGKELEFVATISHGGSTNNADSVKGRFTISRDNGKNTVYLKMNSLKPEVTAVYYCAVWSLGRWRNYYWGQGSQVTVSS
polyreactivity (PSR sort gate): low polyreactivity

QVQLVESGGGLVQAGGSLRLSCAASGLTFQGYAMGWYRQAPGKERELVAAISGSGGSTYYADSVKGRFTISRDNAKNTVYLQMNSLKPEDTAVYYCAADDSYYGIDYGYWGQGTQVTVSS
polyreactivity (PSR sort gate): low polyreactivity

QVQLVESGGGLVQAGGSLRLSSAASGITFYWYAMGWYRQAPGKERELVAASTRSVGSTYYADSVNGRFTISRDNAKNTVYLQMNSLKPEDTAVYYCAADFYYYGFDYWGQGTQVTVSS
polyreactivity (PSR sort gate): low polyreactivity

QVQLVESGGGLVQAGGSLRLSCAASGFTFVEYAMGWYRQAPGKERELVASIRRSGGRTYYADSVKGRFTISRDNAKNTVYLQMNSLKPEDTAVYYCAKSVPRYYSKSGLAYEFDYWGQGTQVTVSS
polyreactivity (PSR sort gate): low polyreactivity

QVQLVESGGGLVQAGGSLRLSCAASGFTFDKYAMGWYRQAPGKERELVAAISNSGGRTYYADSVKGRFTISRDNAKNTVYLQMNSLKPEDTAVYYCTIFKDYDYWGQGTQVTVSS
polyreactivity (PSR sort gate): high polyreactivity
